Experimental data as given in patent US20160053277A1, “Compositions Having Dicamba Decarboxylase Activity and Methods of Use” (PIONEER HI-BRED INTERNATIONAL, INC., priority 2013, published 2016).

Columns and labels:
[1] = 14C assay with IPTG-induced recombinant E. coli cells: 14CO2 captured from [14C]-carboxyl-labeled dicamba; conditions: for Enzymatic Detection level: dicamba decarboxylation activity of the protein of the given SEQ ID NO, High / Low / No; for Dicamba Decarboxylase Activity: induced recombinant E. coli cells, [14C]-carboxyl-labeled dicamba, 14CO2 capture
[2] = Saturation mutagenesis of SEQ ID NO:109: dicamba decarboxylation activity of point mutants (carbon dioxide released); conditions: decarboxylation activity (carbon dioxide released) of point mutant compared with unmutated backbone protein; backbone SEQ ID NO: 109

B1: 84 (protein, listed as Mycobacterium rhodesiae)
chain: MASLIALEEHYAWDPASEGNVVATWLRANNGVAYDRLYDRGPLRIEQMDAAGIDFQILSLFDPGVQDEVDAVRAVDLARRANDDLAESVRANPSRFGGFATLATQQPDAAVAEFDRAVTELGLVGGLINGHCQGRYLDDPAYEALFSRAEALGAPIYLHPTTPHPAVMDAWFAPYVGDGLHLASWGFAAETGTHVLRLIYSGLFDKFPRLQMIIGHLGEMLPFAAYRIDRYYGLGGGGTGHTLQHLPSDYLRNNFHVTTSGNFCSPALDCTLDVMGADRVMFSVDYPMDDNQTGADFLASYPMDDTNRRKVASENALRLFGDRIPAALRN
Enzymatic Detection level [1]: Low | Dicamba Decarboxylase Activity [1]: Low | Fold Activity [2]: 1

B2: 91 (protein, listed as Botryotinia fuckeliana)
chain: MASFVCNFGKAALATLLLTPSISAADYTPQETVLNSGRPTFYDASTSIPGKIALEEHVGNDLLNGLYTVPYYPNTNEPQYSDSVYIADVGEKMLDIPSRIANMDAANISISVLTFGGPGIQGVFNATYATYAAGYVNDYLYKNYKNNANYTGRFEFWCSNALQEPSKAATELERCVKELGGVGSFVGGYTNNGGINGTANDIVYLDDPSMEPFLEKVVELDVPIYLHPRMPAPSQLLSVKGYEFLGSSPWGFSSETGAHALRLMVSGTLDKYPTLKIVLGHCGEGLPFFLPRIDQRLRHFKKELFNNTLTMEEYWLRNFYVTTAGVQDAGTLVDTIKRTGEDRVMFSVDYPFEDTVEIAGWFDRLEMNTLTKTKLAYENAKALLKLTCYVDAEKRPRIFNKHHVDDIIKHTHSPCIWTLFH
Enzymatic Detection level [1]: Low | Dicamba Decarboxylase Activity [1]: Low | Fold Activity [2]: 1.6

B3: 98 (protein)
chain: MAIIDCHGHYTTAPAAHDAFRKAQIAHHDDPQQPAPQYPHISDDALRESIEQHQLRLLRERGADMTIFSPRASTMAHHIGNEAVSQVWTQRCNDLIARVVQLYPHTFIGVCQLPQSPGVPISHSIAELERCVNELGFVGCNLNPDPSGGHWNGVPLTDRAWYPFFEKMVELDVPAMVHVSGSCNANFHATGAHYLNADTTAFMQFLEGDLFRDFPSLRFIIPHGGGAVPYHWGRFRGLADMLGKPPLATHVMRNVFFDTCVYHQPGIDLLFEVIDIDNILFGSEMVGAVRGIDPQTGHYFDDTKRYIDALTISDADKRKVFEGNARRVYPRLDAQLRARGL
modifications: Xanthomonas campestris pv.
Enzymatic Detection level [1]: No | Dicamba Decarboxylase Activity [1]: No | Fold Activity [2]: 2.3

B4: 6 (protein)
chain: MAEILSPEESIYYSKLSNDILAEGIKKNPTRFRGFAALPTPDPIQAAMELERCIKLGGFVGAIINGHINGHYLDEIQFDPILEAADALDVPLYIHPAVPPKAIIDTYYKMNDTYAQTVMVSGGWGWHIETGVHVLRLISSGVFDRHPNLKIVIGHLGEGLPFFMHRLNNAIGGNLKKSYSTYLKENIYYTISGFNDPDLFQFVLKKVGENNIMFSSDYPFNFPKREVELFNELNISEEVREKISFKNAERILKI
modifications: Treponema brennaborense
Enzymatic Detection level [1]: No | Dicamba Decarboxylase Activity [1]: No | Fold Activity [2]: 0.9

B5: 93 (protein, listed as Mucilaginibacter paludis)
chain: MAKYGKHITINKNMRIVTLEEHISFPEMADQIPKAALGSFGRSEAMQRIAPKLADITGERLKSMDANGISMQVLSVDSSGVNLLSPQQGPAFATQYNDLIANRIAGFEKRFTAFAHLPMTAPFAAADELERAVKEHHFCGAMIRGLTGDQFLDHPQFAPIFERAQKLDVPIYLHPGLPPKGVADIYYSGLPNYSGMAEALACYGWGWHSETALHVLRLLFSGIFDQYPKLKLVIGHMGEMLPMMMARSEKAFKPGNGGANVRTLTDTFRSQVYLTTSGFFTQPPLKIALDTFGIDHVMFSVDYPFSTNEMGIEFLNEIDLPDEEVARIAHGNADKLLNLKA
Enzymatic Detection level [1]: Low | Dicamba Decarboxylase Activity [1]: Low | Fold Activity [2]: 1.6

B6: 96 (protein)
chain: MAPLIVDVHTHVYPPAYMQMLRSRKTVPYVHDPSNNRDPRLIILSSDDDASIPLDQRGRPVDSSYWDINVKLSFMRQHGINCSVISLANPWLDFVEPAEAQMWAERINDDLEKTCATVNKAADPGNTLTLDQKETLFAFGALPLSAPSSESVVAEIKRLKTLEHLRGVIMGTSGLGKGLDDARLDPVWEALQETDMLMFLHPHYGLPEEAYGGPETTGRYGHVLPLALGFPLETTIAVTRMLLSGVFDRFPRLKILLAHSGGTLPFLAGRIESCILHERKFISGGGDVQGPQRSVWDVLKTNIYLDAVVYGKPGLEAAMTASGSDRLLFGTDHPFFPPLDSKDNSWPSVTTNYQAIHATFDTNSKTVADVLGGNAARILNLK
modifications: Aspergillus nidulans
Enzymatic Detection level [1]: No | Dicamba Decarboxylase Activity [1]: No | Fold Activity [2]: 1.1

B7: 7 (protein, listed as Legionella pneumophila)
chain: MAIVDFETHFITEACIDYLTQRQEVPKLVPELNGAYTMCFTPDVSLFHTSALMEELLSLNEQRLAIMDQAGVTIQVLSLTTINGIDSCPGDENKSTALAREVNDQLYSAIQRHPERFKGFASISPYDVKEGVKELERAISQLGFVGWLTHSNFGEDNYLDDKTYWPLLEAAEGLNIPIYLHPNVPIMREFGKYGFALGGSALGFEFDTALCLMRMILGGVFDAFPKLKIMLGHLGETMPFLMERLDHLYRIPDLKAYRPSIQRIPSEVLRQNVYITTSGRFFVPALRYVLEVMGEDRVLFASDYPMESLLDATRFIQDSDLSNQTKQKIFSINAKNLNLI
Enzymatic Detection level [1]: No | Dicamba Decarboxylase Activity [1]: No | Fold Activity [2]: 1.3

B8: 97 (protein, listed as Sphingobium sp.)
chain: MAMMIIDCHGHYTVLPKAHDEWREQQKAAFKAGQPAPPYPEISDDEIRETIEANQLRLIKERGADMTIFSPRASAMAPHVGDQSVAVPWAQACNNLIARVVDLFPETFAGVCMLPQSPEADMTSSIAELERCVNELGFIGCNLNPDPGGGHFKHPPLTDRFWYPFYEKMVELDVPAMIHVSGSCNPAMHATGAYYLAADTIAFMQLLQGNLFADFPTLRFIIPHGGGAVPYHWGRFRGLADMLKQPSLDTLLMNNVFFDTCVYHQPGINLLADVIDNKNILFGSEMVGAVRGIDPTTGHYFDDTKRYIDALDISDQERHAIFEGNTRRVFPRLDAKLKARGL
Enzymatic Detection level [1]: No | Dicamba Decarboxylase Activity [1]: No | Fold Activity [2]: 2.9

B9: 99 (protein, listed as Ralstonia solanacearum)
chain: MAIIDCHGHFTTAPTALEDWRKRQIANLATPALGPSPDDLKISDDALTEAIRANQLRLMQARGSDLTIFSPRASFMAHHIGDFHTSATWAAICNALCHRVSQLFPDHFVGAAMLPQSPGVDIRTCIPELARCIVDYGFVGVNLNPDPSGGHWTSPPLSDPYWFPLYEKLVEYDVPAMIHVSTSCNACFHTTGAHYLNADTTAFMQVLTSDLFRRFPTLKFVIPHGGGAVPYHWGRFRGLAQELKTPPLQEHLLHNVFFDTCVYHQPGIDLLTRVIPVDNILFASEMIGAVRGIDPETGHPFDDTRRYIDQAHTLSAEDRHKIYEGNARRVYPRLDARLKARGR
Enzymatic Detection level [1]: No | Dicamba Decarboxylase Activity [1]: No | Fold Activity [2]: 1.7

B10: 85 (protein, listed as Maritimibacter alkaliphilus)
chain: MAADRKPGLVSVEEGFMIPEVVAELSRIAGGVPSMKSGPIAGPFMDDLLDIGKGRVARMDADGVAVQILALAAPGVQKFDPDTALALSRLTNDRLAEAIAAHPARFGGLAAAPPQAAREGAKELDRAITTLGLNGLIVNSHTNDLYLDDPSFWPLLEAAEALDVPVYLHPREPAAGIEGGLMAMTGFTVGWAYAVETGTHLLRMIAAGVFDRFPRLRIVLGHLGEMIPFMLDRIDNRYPFEMGVTGAKPLPRKPSDYFRDHVTVATSGMNFNAPMRAAIEVLGADKVMFAADYPMERQDEEVAKFAALDLTPDERKRIGEDNARRVFGL
Enzymatic Detection level [1]: Low | Dicamba Decarboxylase Activity [1]: Low | Fold Activity [2]: 1.4

B11: 94 (protein, listed as Bacillus thuringiensis)
chain: MANRGDSNMKSLVGVIMGSTSDWETMKYACDILDELNIPYEKKVVSAHRTPDYMFEYAETARERGLKVIIAGAGGAAHLPGMVAAKTNLPVIGVPVQSKALNGLDSLLSIVQMPGGVPVATVAIGKAGSTNAGLLAAQILGSFHDDIHDALELRREAIEKDVREGSELV
Enzymatic Detection level [1]: No | Dicamba Decarboxylase Activity [1]: No | Fold Activity [2]: 1.5

B12: 83 (protein, listed as Mycobacterium rhodesiae)
chain: MALIALEEHYAWSPVSAGNVVGSWLETHNVTAYQRLYDRGPLRLEQMDAAGIDFQILSLFDPGVQDDDDTARAVENARRANDDLAETVRAAPDRFGGFATLAPQDPDAAAAELERAVGELGLVGGLINGHTHGRYLDDPAYLGLFECAQRLGVPIYLHPTTPHPAVMDAWFAPYVKDGLHLASWGFAAETGTHALRLIYSGLFDTFPRLQMILGHLGEMLPYAAYRIDRYYGLGGGDDGGRLARLPSEYLRDNFHVTTSGNFNPVAFACALDVMGPDRLMFSVDYPMDDNVTGAEFLRNLEVDDDVRRKVAGENALQLFGDKIPRR
Enzymatic Detection level [1]: Low | Dicamba Decarboxylase Activity [1]: Low | Fold Activity [2]: 1.9

B13: 86 (protein, listed as Sphingopyxis alaskensis)
chain: MALGASVASREASAQMAKAPMRKIATEEAFATPELAKAWLEIARSEPNSSLDIPTGILSIFDNPRPGSNQDRFRRQLLDVDAERIRDMDEAGVDMQLLSVTIPGVQIFEPARAGELAVTTNDHLAAAIARRPTRFAGLACFAPHDPVQATREMERAVNALGLKGFIVNSHTQDLYLDDPRFAPVLEAAQSLDCPIYLHPRAPSNGMAAPFRDYSMGGSIWGFGVEAGTHAVRMILSGVFDRYPRLRIVLGHMGEALPFWMWRLDHMAARRAKDGRMKPLSLAPSEYFKRNFAVTTSGFESPDVLDLVIKVAGIENIMWAIDYPYESSRDAVTFIEGADLTASQRASIFHRNAVRHFRLS
Enzymatic Detection level [1]: Low | Dicamba Decarboxylase Activity [1]: Low | Fold Activity [2]: 1.4

B14: 90 (protein)
chain: MAATIDRVLYLGNATQRRYTSATVSVPRIFGKVALEEHVGTSIWAKYNLTPPANAVVGVLNRPPTLPNTLDTIARLDDINGRLSSMNHSGIGYVIVSLSSPGIQGVHDTALAIKFSTDINDELYLKYANAYPDKFAFFATVPMQDPVAAASELERAVSLLGAKGAAINGYTDIGPPGNSTTRYLDDPINAPFWSKVAALNVPIYLHPRAPPPSQQLVYNYPNNSLSAYPGLVTGGFAYGAETAVHALRLMLSGLFDTHPNIQIILGHAAEGLPFLIHRSDTQLAAEVPGTNGPYKRPLRYYLRNNFYATLSGVRRLSTTQCTLAEMGEERVLFSVDYPFQSNEDAADWFDGVEGMSVETKRKVARGNARRLFNLTVDLDERQIDGDFM
modifications: Pyrenophora tritici-repentis
Enzymatic Detection level [1]: Low | Dicamba Decarboxylase Activity [1]: Low | Fold Activity [2]: 1.7
